According to US20210403542A1 (BIOARCTIC, published 2021):

Key:
[1] = molecular target: T1, human α-synuclein protofibril (human, UniProt P37840 1-140); assay: inhibition ELISA
[2] = molecular target: T1, human α-synuclein protofibril; assay: SPR, Biacore 8K; ratio of KD values
From the text: (§1) Due to feasibility issues caused by the complexity of the target antigen in combination with pronounced avidity dependence of the antibodies, different assay set-ups were used to assess α-synuclein protofibril and monomer binding, respectively.

[3] = molecular target: T1, human α-synuclein protofibril; assay: inhibition ELISA; protofibril concentration as monomer equivalents
[4] = molecular target: T1, human α-synuclein protofibril; assay: SPR, Biacore 8K; PF coated on chip, antibody injected, single cycle kinetics
From the text: as §1

Aβ-protofibril = molecular target: T2, Aβ-protofibril (UniProt P05067 672-713); assay: inhibition ELISA; concentration of Aβ-protofibril varied against BAN0805 (hu47-IgG4)
T2 construct: also called Aβ-protofibrils

β-synuclein monomer = β-synuclein monomer (UniProt Q16143 1-134); assay: inhibition ELISA; concentration of β-synuclein monomer varied against BAN0805 (hu47-IgG4)
γ-synuclein monomer = γ-synuclein monomer (UniProt O76070 1-127); assay: inhibition ELISA; concentration of γ-synuclein monomer varied against BAN0805 (hu47-IgG4)
α-synuclein monomer = α-synuclein monomer (human, UniProt P37840 1-140); assay: SPR, Biacore 8K; antibody captured by anti-human antibody, monomer injected, single cycle kinetics
From the text: as §1

Chain of γ-synuclein monomer (O76070 whole entry): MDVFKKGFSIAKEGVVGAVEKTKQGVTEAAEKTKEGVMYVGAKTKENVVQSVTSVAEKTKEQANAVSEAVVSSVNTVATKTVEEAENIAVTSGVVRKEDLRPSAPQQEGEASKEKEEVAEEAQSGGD
Chain of β-synuclein monomer (Q16143 whole entry): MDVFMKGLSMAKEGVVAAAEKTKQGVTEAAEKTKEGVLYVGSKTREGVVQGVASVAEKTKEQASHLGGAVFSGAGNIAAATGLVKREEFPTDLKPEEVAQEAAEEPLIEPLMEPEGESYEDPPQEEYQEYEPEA

selectivity for α-synuclein protofibril versus monomer (IC50 monomer / IC50 PF) [1]: 910 fold
selectivity PF vs. monomeric α-synuclein (fold) [2]: 110000 fold
IC50 [3]: 2.2 nM
Kd [4]: 0.0185 nM
binding result (Aβ-protofibril): no binding
Kd (α-synuclein monomer): 2190 nM
B1: BAN0805 (antibody, human IgG4 S228P, kappa, V domains shown)
VH: QVQLQESGPGLVKPSETLSLTCTVSGFSLTSYGVHWIRQPPGKGLEWIGVIWRGGSTDYSAAFMSRLTISKDTSKNQVSLKLSSVTAADTAVYYCAKLLRSVGGFADWGQGTMVTVSS
VL: DIVMTQSPLSLPVTPGEPASISCRSSQTIVHNNGNTYLEWYLQKPGQSPQLLIYKVSNRFSGVPDRFSGSGSGTDFTLKISRVEAEDVGVYYCFQGSHVPFTFGQGTKLEIKR
notes: Humanized variant of mAb47, human IgG4 (pXC-IgG4Pro(deltaK)) / kappa; also called hu47-IgG4
binding result (β-synuclein monomer): no binding (tested: last point just above the 10000 nM tick)
binding result (γ-synuclein monomer): no binding (tested: last point just above the 10000 nM tick)
